Measurements as given in patent US20150361138A1 (INSTITUT NATIONAL DE LA RECHERCHE AGRONOMIQUE, published 2015).
*1 amine or outer side, *2 acyl side, *3 side chain or, on linkers, in order; H or OH if unused. Side-chain parts run from the residue outwards. [ ]: non-standard residue; d: D form. The star is where a group is joined. TTDS = 1,13-diamino-4,7,10-trioxatridecan-succinic acid spacer arm, O=C(CCC(=O)[*:2])NCCCOCCOCCOCCCN[*:1]; PEG5000 = COCH2CH2NH(CH2CH2O)nMe, about 5000 g/mol; γGlu = O=C(O)[C@H](CCC(=O)[*:2])N[*:1]; Arg(Me) = CNC(=N)NCCC[C@H](N)C(=O)O; Palmitoyl = CCCCCCCCCCCCCCCC(=O)*

B1: peptide compound C5, Ac-Tyr-Asn-Trp-Asn-Ser-PheΨ[Tz]GlyΨ[Tz]Leu-Arg-Tyr-NH2 (peptide)
peptide: Ac-YNWNSFGLRY-NH2
modifications: also: Phe6-Gly7 and Gly7-Leu8 peptide bonds replaced by 1,4-disubstituted 1,2,3-triazoles

Target: T1, human KISS1R receptor (human, UniProt Q969F8 1-398)
T1 sequence (Q969F8 whole entry): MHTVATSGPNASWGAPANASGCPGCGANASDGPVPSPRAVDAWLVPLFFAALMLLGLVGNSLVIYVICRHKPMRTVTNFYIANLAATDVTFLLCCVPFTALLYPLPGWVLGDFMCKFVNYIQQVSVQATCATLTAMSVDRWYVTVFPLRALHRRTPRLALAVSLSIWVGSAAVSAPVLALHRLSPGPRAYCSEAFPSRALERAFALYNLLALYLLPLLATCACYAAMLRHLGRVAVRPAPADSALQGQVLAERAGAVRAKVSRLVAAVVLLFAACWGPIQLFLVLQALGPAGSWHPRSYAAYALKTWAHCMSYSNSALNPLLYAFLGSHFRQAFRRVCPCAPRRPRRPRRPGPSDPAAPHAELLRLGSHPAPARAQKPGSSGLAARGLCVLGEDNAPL
Test: cell-based or functional assay

Q: How did the EC50 (nM), intracellular calcium mobilization of cells expressing human KISS1R turn out when “peptide compound C6, Ac-DTyr-DTrp-Asn-Thr-Phe-GlyΨ[Tz]Leu-Arg(Me)-Trp-NH2” was run?
A: The EC50 (nM), intracellular calcium mobilization of cells expressing human KISS1R was 0.01 nM.

Q: For “peptide compound C7, Ac-DTyr-Hyp-Asn-Thr-Phe-GlyΨ[Tz]Leu-Arg(Me)-Trp-NH2”, which EC50 (nM), intracellular calcium mobilization of cells expressing human KISS1R is on record?
A: The EC50 (nM), intracellular calcium mobilization of cells expressing human KISS1R was 0.014 nM.

Target: T1, human KISS1R receptor
Test: cell-based or functional assay
Remark: another data set of the same source

Q: Which “EC50 (nM), intracellular calcium mobilization of cells expressing human KISS1R” value does the source give for B1 here?
A: Its value is 44 nM.

Q: How did the “EC50 (nM), intracellular calcium mobilization of cells expressing human KISS1R” value turn out when Ac-YNWNSFGLRY-NH2 (also: Gly7-Leu8 peptide bond replaced by 1,4-disubstituted 1,2,3-triazole) [peptide compound C2, Ac-Tyr-Asn-Trp-Asn-Ser-Phe-GlyΨ[Tz]Leu-Arg-Tyr-NH2] was run?
A: The value was 0.029 nM.

Q: H-YNWNSFGLRY-NH2 [comparative peptide compound Comp.1 (mKP10), H-Tyr-Asn-Trp-Asn-Ser-Phe-Gly-Leu-Arg-Tyr-NH2] was tested. Which “EC50 (nM), intracellular calcium mobilization of cells expressing human KISS1R” value did it give?
A: The value was 2.9 nM.

Q: With Ac-YNK(Ac)NSFGL[Arg(Me)]Y-NH2 (also: Gly7-Leu8 peptide bond replaced by 1,4-disubstituted 1,2,3-triazole) [peptide compound C4, Ac-Tyr-Asn-Lys(Ac)-Asn-Ser-Phe-GlyΨ[Tz]Leu-Arg(Me)-Tyr-NH2] as the molecule, how does the “EC50 (nM), intracellular calcium mobilization of cells expressing human KISS1R” value read?
A: The value was 0.011 nM.

Q: With Ac-YNWNSFGL[Arg(Me)]Y-NH2 (also: Gly7-Leu8 peptide bond replaced by 1,4-disubstituted 1,2,3-triazole) [peptide compound C3, Ac-Tyr-Asn-Trp-Asn-Ser-Phe-GlyΨ[Tz]Leu-Arg(Me)-Tyr-NH2] as the molecule, how does the “EC50 (nM), intracellular calcium mobilization of cells expressing human KISS1R” value read?
A: The value was 0.014 nM.

Q: For Ac-YNWNSFGLRY-NH2 [peptide compound Comp.3, Ac-Tyr-Asn-Trp-Asn-Ser-Phe-Gly-Leu-Arg-Tyr-NH2], which “EC50 (nM), intracellular calcium mobilization of cells expressing human KISS1R” value is on record?
A: The value was 0.1 nM.

Q: With H-YNWNSFGLRY-NH2 (also: Gly7-Leu8 peptide bond replaced by 1,4-disubstituted 1,2,3-triazole) [peptide compound C1, H-Tyr-Asn-Trp-Asn-Ser-Phe-GlyΨ[Tz]Leu-Arg-Tyr-NH2] as the molecule, how does the “EC50 (nM), intracellular calcium mobilization of cells expressing human KISS1R” value read?
A: Its value is 0.5 nM.

Target: T1, human KISS1R receptor
Test: cell-based or functional assay
Remark: another data set of the same source

Q: How did the “EC50 (nM), intracellular calcium mobilization of cells expressing human KISS1R” value turn out when Ac-YK(2‑(succinamido)‑6‑(4-(4-iodophenyl)butanamido)hexanoate)WNSFGLRY-NH2 (also: Gly7-Leu8 peptide bond replaced by 1,4-disubstituted 1,2,3-triazole) was run?
A: The value was 0.001 nM.

Q: Which “EC50 (nM), intracellular calcium mobilization of cells expressing human KISS1R” value does the source give for Ac-YNK([γGlu-Palmitoyl])NSFGLRY-NH2 (also: Gly7-Leu8 peptide bond replaced by 1,4-disubstituted 1,2,3-triazole) [peptide compound C11, Ac-Tyr-Asn-Lys(γ-(N-hexadecanoyl-Glu-OH))-Asn-Ser-Phe-GlyΨ[Tz]Leu-Arg-Tyr-NH2] here?
A: The value was 90 nM.

Q: Which “EC50 (nM), intracellular calcium mobilization of cells expressing human KISS1R” value does the source give for Ac-YK(PEG5000)WNSFGLRY-NH2 (also: Gly7-Leu8 peptide bond replaced by 1,4-disubstituted 1,2,3-triazole) [peptide compound C16, Ac-Tyr-Lys(PEG5000)-Trp-Asn-Ser-Phe-GlyΨ[Tz]Leu-Arg-Tyr-NH2] here?
A: The value was 4.17 nM.

Q: Which “EC50 (nM), intracellular calcium mobilization of cells expressing human KISS1R” value does the source give for Ac-YK([TTDS-γGlu-Palmitoyl])WNSFGLRY-NH2 (also: Gly7-Leu8 peptide bond replaced by 1,4-disubstituted 1,2,3-triazole) here?
A: Its value is 0.079 nM.

Q: For Ac-YK([γGlu-Palmitoyl])WNSFGLRY-NH2 (also: Gly7-Leu8 peptide bond replaced by 1,4-disubstituted 1,2,3-triazole) [peptide compound C8, Ac-Tyr-Lys(γ-(N-hexadecanoyl-Glu-OH))-Trp-Asn-Ser-Phe-GlyΨ[Tz]Leu-Arg-Tyr-NH2], which “EC50 (nM), intracellular calcium mobilization of cells expressing human KISS1R” value is on record?
A: Its value is 1.38 nM.

Q: {Palmitoyl-γGlu}-YNWNSFGL[Arg(Me)]Y-NH2 (also: Gly7-Leu8 peptide bond replaced by 1,4-disubstituted 1,2,3-triazole) [peptide compound C12, γ-(N-hexadecanoyl-Glu-OH)Tyr-Asn-Trp-Asn-Ser-Phe-GlyΨ[Tz]Leu-Arg(Me)-Tyr-NH2] was tested. Which “EC50 (nM), intracellular calcium mobilization of cells expressing human KISS1R” value did it give?
A: The value was under 0.001 nM.

Q: For {Palmitoyl-γGlu}-YNWNSFGLRY-NH2 (also: Gly7-Leu8 peptide bond replaced by 1,4-disubstituted 1,2,3-triazole) [peptide compound C9, γ-(N-hexadecanoyl-Glu-OH)-Tyr-Asn-Trp-Asn-Ser-Phe-GlyΨ[Tz]Leu-Arg-Tyr-NH2], which “EC50 (nM), intracellular calcium mobilization of cells expressing human KISS1R” value is on record?
A: Its value is under 0.001 nM.
